Test results: patent publication US12319739 (F STAR DELTA, dated 2025)
One block for each binder: values may come before it.

Key:
human CEACAM-5-His-Fc = biological target: T1, human CEACAM-5-His-Fc (human, UniProt P06731 35-685); experiment: ELISA, antigen coated 1 µg/ml
T1 sequence (looked up): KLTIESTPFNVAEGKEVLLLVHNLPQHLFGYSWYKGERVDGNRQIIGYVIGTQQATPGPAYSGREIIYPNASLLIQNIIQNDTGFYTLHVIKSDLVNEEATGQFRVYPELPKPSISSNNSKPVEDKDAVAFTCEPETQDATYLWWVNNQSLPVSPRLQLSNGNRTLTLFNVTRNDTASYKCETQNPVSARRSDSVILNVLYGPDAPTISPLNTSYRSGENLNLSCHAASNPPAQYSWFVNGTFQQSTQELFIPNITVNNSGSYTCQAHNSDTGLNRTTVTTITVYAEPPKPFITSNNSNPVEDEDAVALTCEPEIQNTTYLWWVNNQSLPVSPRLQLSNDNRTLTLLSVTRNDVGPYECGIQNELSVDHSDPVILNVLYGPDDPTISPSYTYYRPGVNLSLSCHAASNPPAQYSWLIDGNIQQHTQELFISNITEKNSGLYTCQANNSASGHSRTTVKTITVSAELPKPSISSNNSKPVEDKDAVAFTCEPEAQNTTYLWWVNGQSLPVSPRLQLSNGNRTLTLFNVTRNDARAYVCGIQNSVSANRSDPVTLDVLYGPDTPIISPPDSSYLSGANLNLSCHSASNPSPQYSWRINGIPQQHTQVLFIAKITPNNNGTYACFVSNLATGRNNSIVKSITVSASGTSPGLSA
Experimental: (§1) Binding of the anti-MSLN mAbs, tested at a concentration range of 0.02 to 1000 nM (3-fold dilutions) was detected using anti-human Fab-HRP (Sigma, A0293).

human E-Cadherin = biological target: T2, human E-Cadherin (human, UniProt P12830 155-707); experiment: ELISA, antigen coated 1 µg/ml
T2 sequence (looked up): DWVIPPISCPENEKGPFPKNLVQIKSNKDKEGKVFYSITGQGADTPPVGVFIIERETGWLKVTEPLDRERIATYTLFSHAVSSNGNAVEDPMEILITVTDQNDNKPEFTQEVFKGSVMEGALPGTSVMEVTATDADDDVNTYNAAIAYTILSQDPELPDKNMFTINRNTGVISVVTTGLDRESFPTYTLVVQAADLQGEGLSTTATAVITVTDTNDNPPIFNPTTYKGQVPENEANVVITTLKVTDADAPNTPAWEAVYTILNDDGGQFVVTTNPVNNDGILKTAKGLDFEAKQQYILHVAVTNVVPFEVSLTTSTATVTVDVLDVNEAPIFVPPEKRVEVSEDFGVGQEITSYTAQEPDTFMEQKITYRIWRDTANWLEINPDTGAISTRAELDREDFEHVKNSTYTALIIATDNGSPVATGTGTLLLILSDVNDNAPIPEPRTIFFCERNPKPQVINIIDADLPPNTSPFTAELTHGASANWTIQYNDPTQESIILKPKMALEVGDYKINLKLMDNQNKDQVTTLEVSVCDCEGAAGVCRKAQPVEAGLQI
Experimental: as §1

human Thrombomodulin = human Thrombomodulin (human, UniProt P07204 19-515, limits assumed); experiment: ELISA, antigen coated 1 µg/ml
human Thrombomodulin, sequence (P07204 19-515 limits assumed): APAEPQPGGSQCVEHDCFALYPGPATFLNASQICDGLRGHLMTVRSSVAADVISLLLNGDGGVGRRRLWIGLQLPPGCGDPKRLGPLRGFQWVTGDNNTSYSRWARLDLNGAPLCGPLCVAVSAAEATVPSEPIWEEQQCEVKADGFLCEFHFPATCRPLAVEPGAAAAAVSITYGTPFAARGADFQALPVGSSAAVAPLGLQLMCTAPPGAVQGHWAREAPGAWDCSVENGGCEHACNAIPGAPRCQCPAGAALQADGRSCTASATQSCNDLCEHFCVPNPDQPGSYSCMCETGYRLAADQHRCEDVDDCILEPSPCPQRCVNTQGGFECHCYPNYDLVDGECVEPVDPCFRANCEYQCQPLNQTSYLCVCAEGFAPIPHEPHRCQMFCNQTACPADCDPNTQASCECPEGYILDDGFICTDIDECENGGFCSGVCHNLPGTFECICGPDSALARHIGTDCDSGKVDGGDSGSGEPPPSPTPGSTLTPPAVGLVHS
Experimental: as §1

human EpCAM-hFc = biological target: T3, human EpCAM-hFc (human, UniProt P16422 24-265, limits assumed); experiment: ELISA, antigen coated 1 µg/ml
T3 sequence (looked up): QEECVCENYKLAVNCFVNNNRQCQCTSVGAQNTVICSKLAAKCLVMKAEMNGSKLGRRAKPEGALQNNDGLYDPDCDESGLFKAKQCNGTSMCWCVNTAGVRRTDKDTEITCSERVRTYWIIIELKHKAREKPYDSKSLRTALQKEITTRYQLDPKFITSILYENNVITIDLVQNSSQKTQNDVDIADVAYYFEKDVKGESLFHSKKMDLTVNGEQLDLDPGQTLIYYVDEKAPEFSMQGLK
Experimental: as §1

hMSLN-His-Avi [1] = biological target: T4, hMSLN-His-Avi (human, UniProt Q13421 296-598, single biotin on the Avi tag in the biotinylated form); experiment: ELISA, hMSLN-His-Avi coated 1 µg/ml
T4 construct: Monomeric; also called human MSLN-His-Avi; hMSLN-Avi-His
T4 sequence (Q13421 other isoform, or with tags, fused parts or gaps): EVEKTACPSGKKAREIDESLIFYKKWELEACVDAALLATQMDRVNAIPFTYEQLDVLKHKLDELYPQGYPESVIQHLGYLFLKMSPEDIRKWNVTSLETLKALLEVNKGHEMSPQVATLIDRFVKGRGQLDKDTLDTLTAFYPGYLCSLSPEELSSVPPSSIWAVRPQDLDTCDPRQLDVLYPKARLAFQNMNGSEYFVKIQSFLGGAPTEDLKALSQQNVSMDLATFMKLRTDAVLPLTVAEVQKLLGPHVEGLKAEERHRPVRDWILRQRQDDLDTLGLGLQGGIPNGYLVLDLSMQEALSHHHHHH

hMSLN-His-Avi [2] = biological target: T4, hMSLN-His-Avi; experiment: SPR, hMSLN-His-Avi immobilised at 50 RU
hMSLN-His-Avi [3] = biological target: T4, hMSLN-His-Avi; experiment: SPR, hMSLN-His-Avi immobilised at 100 RU

binding result (human CEACAM-5-His-Fc): no binding (tested: 1000 nM) | binding result (human E-Cadherin): no binding (tested: 1000 nM) | binding result (human Thrombomodulin): no binding (tested: 1000 nM) | binding result (human EpCAM-hFc): no binding (tested: 1000 nM) | EC50 (hMSLN-His-Avi [1]): ~0.5 nM | maximum binding signal (hMSLN-His-Avi [1]): 3 | Kd (hMSLN-His-Avi [2]): 26.2 nM | Kd (hMSLN-His-Avi [3]): 23.2 nM
B1: FS28-256 (mAb in G1-AA format) (antibody, human IgG1, V domains shown)
VH: EVQLLESGGGLVQPGGSLRLSCAASGFTFTNTYMSWVRQAPGKGLEWVSNISPTYSTTNYADSVKGRFTISRDNSKNTLYLQMNSLRAEDTAVYYCARYNSYQGGLDYWGQGTLVTVSS
VL: EIVLTQSPGTLSLSPGERATLSCRASQSVSSSYLAWYQQKPGQAPRLLIYGASSRATGIPDRFSGSGSGTDFTLTISRLEPEDFAVYYCQQSYYYPITFGQGTKVEIK

binding result (human CEACAM-5-His-Fc): no binding (tested: 1000 nM) | binding result (human E-Cadherin): no binding (tested: 1000 nM) | binding result (human Thrombomodulin): no binding (tested: 1000 nM) | binding result (human EpCAM-hFc): no binding (tested: 1000 nM) | EC50 (hMSLN-His-Avi [1]): ~0.5 nM | maximum binding signal (hMSLN-His-Avi [1]): 3 | Kd (hMSLN-His-Avi [2]): 37 nM | Kd (hMSLN-His-Avi [3]): 29.6 nM
B2: FS28-185 (mAb in G1-AA format) (antibody, human IgG1, V domains shown)
VH: EVQLLESGGGLVQPGGSLRLSCAASGFTFTTSAMSWVRQAPGKGLEWVSRINPYEGETNYADSVKGRFTISRDNSKNTLYLQMNSLRAEDTAVYYCARGWSIATYYKSAMDYWGQGTLVTVSS
VL: EIVLTQSPGTLSLSPGERATLSCRASQSVSSSYLAWYQQKPGQAPRLLIYGASSRATGIPDRFSGSGSGTDFTLTISRLEPEDFAVYYCQQSSYSAPVTFGQGTKVEIKR
